Experimental findings from publication PMC8153620, “A Novel, Easy Assay Method for Human Cysteine Sulfinic Acid Decarboxylase” (Life, 2021) are described below.

Series [1] has as its target T1, human cysteine sulfinic acid decarboxylase (CSAD) (Homo sapiens, UniProt Q9Y600).
T1 construct: His6 and TEV site), tag kept (cleavage not mentioned); plasmid pNIC28-Bsa4; E. coli Rosetta(DE3); homodimer in crystal (PDB 2jis, solved by SGC)
T1 sequence (Q9Y600 1-493): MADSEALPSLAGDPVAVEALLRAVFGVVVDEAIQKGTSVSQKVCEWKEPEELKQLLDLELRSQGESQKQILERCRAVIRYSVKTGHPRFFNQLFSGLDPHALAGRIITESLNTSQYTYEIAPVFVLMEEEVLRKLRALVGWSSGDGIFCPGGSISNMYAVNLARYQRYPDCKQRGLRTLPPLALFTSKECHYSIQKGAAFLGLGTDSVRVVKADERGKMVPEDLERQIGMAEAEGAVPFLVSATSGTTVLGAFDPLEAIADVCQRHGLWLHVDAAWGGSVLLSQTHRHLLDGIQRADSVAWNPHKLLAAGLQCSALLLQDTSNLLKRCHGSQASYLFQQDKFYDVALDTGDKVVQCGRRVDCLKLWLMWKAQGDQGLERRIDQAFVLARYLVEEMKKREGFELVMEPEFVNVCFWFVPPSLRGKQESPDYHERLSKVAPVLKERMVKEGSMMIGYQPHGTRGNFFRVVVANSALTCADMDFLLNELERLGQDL
As to the kind of experiment: restoration of catalytic activity by equimolar PLP; absorption spectrum after dialysis. Conditions: covalent (Schiff base to Lys305 in PDB 2jis, not solved here); spectrum in 20 mM NaHEPES pH 7.5, 300 mM NaCl, 0.2 mM DTT, 5% glycerol. It is filed as biochemical.

Substrate in series [2]: N[C@@H](CS(=O)O)C(=O)O
As to the kind of experiment: purified protein. It is filed as biochemical, Homo sapiens. Conditions: 20 mM potassium phosphate pH 7.2, 0.2 mM DTT, 0.1 mM EDTA, 0.06 mM PLP, about 20 °C (room temperature), 0.33 μM CSAD, CSA 0.06–1 mM.

As to `Cc1ncc(COP(=O)(O)O)c(C=O)c1O` [PLP, pyridoxal-5′-phosphate], the “restoration of catalytic activity by equimolar PLP; absorption spectrum after di” value in series [1] is given as “addition of exogenous PLP—in equimolar concentration with respect to the protein—restored the holo-form”.

B1: human cysteine sulfinic acid decarboxylase (CSAD) (Homo sapiens) (protein)
chain: MADSEALPSLAGDPVAVEALLRAVFGVVVDEAIQKGTSVSQKVCEWKEPEELKQLLDLELRSQGESQKQILERCRAVIRYSVKTGHPRFFNQLFSGLDPHALAGRIITESLNTSQYTYEIAPVFVLMEEEVLRKLRALVGWSSGDGIFCPGGSISNMYAVNLARYQRYPDCKQRGLRTLPPLALFTSKECHYSIQKGAAFLGLGTDSVRVVKADERGKMVPEDLERQIGMAEAEGAVPFLVSATSGTTVLGAFDPLEAIADVCQRHGLWLHVDAAWGGSVLLSQTHRHLLDGIQRADSVAWNPHKLLAAGLQCSALLLQDTSNLLKRCHGSQASYLFQQDKFYDVALDTGDKVVQCGRRVDCLKLWLMWKAQGDQGLERRIDQAFVLARYLVEEMKKREGFELVMEPEFVNVCFWFVPPSLRGKQESPDYHERLSKVAPVLKERMVKEGSMMIGYQPHGTRGNFFRVVVANSALTCADMDFLLNELERLGQDL
notes: His6 and TEV site), tag kept (cleavage not mentioned); plasmid pNIC28-Bsa4; E. coli Rosetta(DE3); homodimer in crystal (PDB 2jis, solved by SGC)
For B1, in series [2], the Michaelis constant (Km) (usually the concentration of substrate that gives half-maximal velocity) was 200 ± 20 µM and the kcat (in general, the maximal rate divided by the concentration of active sites) amounted to 5.6 ± 0.2 s⁻¹.
